Data reported in patent US20210246166A1 (Bayer, published 2021).
Numbered stars: 1 amine (or outer) side, 2 acyl side, 3 side chain; on linkers, the order of the positions; unused ones are H or OH. Bridge positions count the residues as written; N and C are the ends. Square brackets hold non-standard residues; d marks the D form. Ends that are not written are not given here. Phe(2,3-F2) = (2S)-3-(2,3-difluorophenyl)-2-aminopropanoic acid, O=C([C@H](Cc1cccc(F)c1F)N[*:1])[*:2]; X3 = (1R,3S)‑3‑(Amino)cyclopentanecarboxylic acid, O=C([C@@H]1CC[C@H](N[*:1])C1)[*:2]; His(τ-Bzl) = N[C@@H](Cc1cn(Cc2ccccc2)cn1)C(=O)O; Oic = O=C(O)[C@@H]1C[C@@H]2CCCC[C@@H]2N1; tBuAla = CC(C)(C)C[C@H](N)C(=O)O; Pen = CC(C)(S)[C@H](N)C(=O)O; NMeA = CN[C@@H](C)C(=O)O; Orn = NCCC[C@H](N)C(=O)O; Sar = CNCC(=O)O

B1: Example 449: ((N-Me)G)-IC+SRSLP-(Oic)-I-(Pen)+IP-((1R,3S)-3-(Amino)cyclopentanecarboxylic acid)-OH (peptide)
peptide: [Sar]ICSRSLP[Oic]I[Pen]IP[X3]-OH
modifications: disulfide 3-11; N-terminus assumed
SMILES: CC[C@H](C)[C@H](NC(=O)CNC)C(=O)N[C@H]1CSSC(C)(C)[C@@H](C(=O)N[C@H](C(=O)N2CCC[C@H]2C(=O)N[C@H]2CC[C@@H](C(=O)O)C2)[C@@H](C)CC)NC(=O)[C@H]([C@@H](C)CC)NC(=O)[C@@H]2C[C@@H]3CCCC[C@@H]3N2C(=O)[C@@H]2CCCN2C(=O)[C@H](CC(C)C)NC(=O)[C@H](CO)NC(=O)[C@H](CCCNC(=N)N)NC(=O)[C@H](CO)NC1=O
B2: Example 447: ((N-Me)G)-IC+SRS-((tBu)A)-PPI-(Pen)+IP-((1-Bn)H)-OH (peptide)
peptide: [Sar]ICSRS[tBuAla]PPI[Pen]IP[His(τ-Bzl)]-OH
modifications: disulfide 3-11; N-terminus assumed
SMILES: CC[C@H](C)[C@H](NC(=O)CNC)C(=O)N[C@H]1CSSC(C)(C)[C@@H](C(=O)N[C@H](C(=O)N2CCC[C@H]2C(=O)N[C@@H](Cc2cn(Cc3ccccc3)cn2)C(=O)O)[C@@H](C)CC)NC(=O)[C@H]([C@@H](C)CC)NC(=O)[C@@H]2CCCN2C(=O)[C@@H]2CCCN2C(=O)[C@H](CC(C)(C)C)NC(=O)[C@H](CO)NC(=O)[C@H](CCCNC(=N)N)NC(=O)[C@H](CO)NC1=O
B3: Example 381: ((N-Me)G)-(Orn)-(Orn)-(Orn)-IC+SRS-((tBu)A)-PPI-(Pen)+IP-NH2 (peptide)
peptide: [Sar][Orn][Orn][Orn]ICSRS[tBuAla]PPI[Pen]IP-NH2
modifications: disulfide 6-14; N-terminus assumed
SMILES: CC[C@H](C)[C@H](NC(=O)[C@H](CCCN)NC(=O)[C@H](CCCN)NC(=O)[C@H](CCCN)NC(=O)CNC)C(=O)N[C@H]1CSSC(C)(C)[C@@H](C(=O)N[C@H](C(=O)N2CCC[C@H]2C(N)=O)[C@@H](C)CC)NC(=O)[C@H]([C@@H](C)CC)NC(=O)[C@@H]2CCCN2C(=O)[C@@H]2CCCN2C(=O)[C@H](CC(C)(C)C)NC(=O)[C@H](CO)NC(=O)[C@H](CCCNC(=N)N)NC(=O)[C@H](CO)NC1=O
B4: Example 419: ((N-Me)G)-IC+SRSLP-(Oic)-I-(Pen)+I-((5-Azaspiro[2.4]heptane-1-carboxylic acid)-OH (peptide)
peptide: [Sar]ICSRSLP[Oic]I[Pen]I[5‑Azaspiro(2.4)heptane‑1‑carboxylic acid]-OH
modifications: disulfide 3-11
B5: Example 438: ((N-Me)G)-IC+SRSLP-(Oic)-I-(Pen)+IP-((5-Azaspiro[2.4]heptane-1-carboxylic acid)-OH (peptide)
peptide: [Sar]ICSRSLP[Oic]I[Pen]IP[5‑Azaspiro(2.4)heptane‑1‑carboxylic acid]-OH
modifications: disulfide 3-11
B6: Example 445: ((N-Me)A)-IC+SRS-((tBu)A)-P-((3R,6R)-1,1-Difluoro-5-azaspiro[2.4]heptane-6-carboxylic acid (enantiomer 2))-I-(Pen)+IP-NH2 (peptide)
peptide: [NMeA]ICSRS[tBuAla]P[(3R,6R)‑1,1‑Difluoro‑5‑azaspiro(2.4)heptane‑6‑carboxylic acid (enantiomer 2)]I[Pen]IP-NH2
modifications: disulfide 3-11
B7: Example 441: ((N-Me)G)-IC+SRS-((2S)-3-(2,3-difluorophenyl)-2-aminopropanoic acid)-P-(Oic)-I-(Pen)+IP-NH2 (peptide)
peptide: [Sar]ICSRS[Phe(2,3-F2)]P[Oic]I[Pen]IP-NH2
modifications: disulfide 3-11; N-terminus assumed
SMILES: CC[C@H](C)[C@H](NC(=O)CNC)C(=O)N[C@H]1CSSC(C)(C)[C@@H](C(=O)N[C@H](C(=O)N2CCC[C@H]2C(N)=O)[C@@H](C)CC)NC(=O)[C@H]([C@@H](C)CC)NC(=O)[C@@H]2C[C@@H]3CCCC[C@@H]3N2C(=O)[C@@H]2CCCN2C(=O)[C@H](Cc2cccc(F)c2F)NC(=O)[C@H](CO)NC(=O)[C@H](CCCNC(=N)N)NC(=O)[C@H](CO)NC1=O
B8: Example 405: ((N-Me)G)-(Orn)-(Orn)-(Orn)-IC+SRSLP-(Oic)-I-(Pen)+IP-NH2 (peptide)
peptide: [Sar][Orn][Orn][Orn]ICSRSLP[Oic]I[Pen]IP-NH2
modifications: disulfide 6-14; N-terminus assumed
SMILES: CC[C@H](C)[C@H](NC(=O)[C@H](CCCN)NC(=O)[C@H](CCCN)NC(=O)[C@H](CCCN)NC(=O)CNC)C(=O)N[C@H]1CSSC(C)(C)[C@@H](C(=O)N[C@H](C(=O)N2CCC[C@H]2C(N)=O)[C@@H](C)CC)NC(=O)[C@H]([C@@H](C)CC)NC(=O)[C@@H]2C[C@@H]3CCCC[C@@H]3N2C(=O)[C@@H]2CCCN2C(=O)[C@H](CC(C)C)NC(=O)[C@H](CO)NC(=O)[C@H](CCCNC(=N)N)NC(=O)[C@H](CO)NC1=O
B9: Example 437: ((N-Me)G)-IC+SRSLP-(Oic)-I-(Pen)+IP-((2S)-3-(Triazol-1-yl)-2-(amino)propanoic acid)-NH2 (peptide)
peptide: [Sar]ICSRSLP[Oic]I[Pen]IP[(2S)‑3‑(Triazol-1-yl)‑2‑(amino)propanoic acid]-NH2
modifications: disulfide 3-11

Biological target: T1, recombinant rat MASP1 active protease (amino acids 302-704, C-terminal His Tag) (rat, UniProt Q8CHN8 302-704)
T1 sequence: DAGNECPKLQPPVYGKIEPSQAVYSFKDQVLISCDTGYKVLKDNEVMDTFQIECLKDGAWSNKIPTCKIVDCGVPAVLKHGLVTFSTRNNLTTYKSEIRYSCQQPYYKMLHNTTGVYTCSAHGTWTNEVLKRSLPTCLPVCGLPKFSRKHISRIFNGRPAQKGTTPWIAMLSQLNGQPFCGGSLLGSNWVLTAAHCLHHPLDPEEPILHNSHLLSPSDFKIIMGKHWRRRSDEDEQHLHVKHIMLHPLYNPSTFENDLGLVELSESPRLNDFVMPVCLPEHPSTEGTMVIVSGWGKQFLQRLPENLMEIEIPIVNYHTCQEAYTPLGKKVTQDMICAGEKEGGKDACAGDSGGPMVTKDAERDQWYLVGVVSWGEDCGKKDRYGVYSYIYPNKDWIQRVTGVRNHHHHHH
Assay: cell-based or functional assay

| Binder | rat MASP1 IC50 |
| --- | --- |
| B1 | 45 nM |
| B2 | 21 nM |
| B3 | 600 nM |
| B4 | 70 nM |
| B5 | 31 nM |
| B6 | 150 nM |
| B7 | 410 nM |
| B8 | 650 nM |
| B9 | 46 nM |

Biological target: recombinant rat MASP2 active protease (amino acids 296-685, C-terminal His Tag) (rat, UniProt Q9JJS8 296-685)
Sequence (Q9JJS8 other isoform, or with tags, fused parts or gaps limits assumed): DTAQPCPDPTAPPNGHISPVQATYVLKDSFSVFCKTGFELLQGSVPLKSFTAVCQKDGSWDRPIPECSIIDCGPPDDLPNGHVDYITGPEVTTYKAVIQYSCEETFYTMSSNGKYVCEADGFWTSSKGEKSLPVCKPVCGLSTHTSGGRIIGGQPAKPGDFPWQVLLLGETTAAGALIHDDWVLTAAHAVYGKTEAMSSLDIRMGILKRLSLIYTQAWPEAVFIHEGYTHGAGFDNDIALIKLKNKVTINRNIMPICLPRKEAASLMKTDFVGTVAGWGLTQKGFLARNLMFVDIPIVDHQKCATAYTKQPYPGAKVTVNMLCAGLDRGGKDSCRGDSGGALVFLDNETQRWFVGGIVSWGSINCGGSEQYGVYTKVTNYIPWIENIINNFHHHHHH
Assay: cell-based or functional assay

| Binder | rat MASP2 IC50 |
| --- | --- |
| B1 | 44.5 nM |
| B2 | 35 nM |
| B3 | 470 nM |
| B4 | 42 nM |
| B5 | 22 nM |
| B6 | 94 nM |
| B7 | 120 nM |
| B8 | 510 nM |
| B9 | 40 nM |
